These results are taken from paper PMC2966024.

For this assay, the target named is PspB-T25 fusion (Y. enterocolitica PspB with Cya-T25 fused to its C-terminus) (Y. enterocolitica). Description: two-hybrid.

As to “PspA-T18 fusion (Y. enterocolitica PspA with Cya-T18 fused to its C-terminus) (from UniProt Q9F4H4 1-221) (natural protein)”, the beta-galactosidase activity was found to be 1470 Miller units.
